Reference: paper PMC6555819, “Comprehensive study of nuclear receptor DNA binding provides a revised framework for understanding receptor specificity”
Residue numbers refer to the chain shown, from its start.

B1: NRC3_random_hg19_250_o1 (dsDNA)
DNA 1: GCCAAGACCATCCTGGCTAACACAGTGAAACCCTGTGCGATTGACAGCGTAGAATGAAGG
DNA 2: CCTTCATTCTACGCTGTCAATCGCACAGGGTTTCACTGTGTTAGCCAGGATGGTCTTGGC
B2: NRC3_random_hg19_207_o1 (dsDNA)
DNA 1: GCGCAAAGGCTGCGGTGCAATCCTGCATTCTTGTTCGCGATTGACAGCGTAGAATGAAGG
DNA 2: CCTTCATTCTACGCTGTCAATCGCGAACAAGAATGCAGGATTGCACCGCAGCCTTTGCGC
B3: NRC3_wobSeed69_DR2_C6A_o1 (dsDNA)
DNA 1: GCAGTAAAAGTTCACTAGGTAACGTAAGATTCAGCTGCGATTGACAGCGTAGAATGAAGG
DNA 2: CCTTCATTCTACGCTGTCAATCGCAGCTGAATCTTACGTTACCTAGTGAACTTTTACTGC
B4: NRC3_wobSeed13_DR0_C7A_o1 (dsDNA)
DNA 1: GCCGTCAAAGGTCAAGGTCAGTGAAAGAGACTCGAAGCGATTGACAGCGTAGAATGAAGG
DNA 2: CCTTCATTCTACGCTGTCAATCGCTTCGAGTCTCTTTCACTGACCTTGACCTTTGACGGC
B5: NRC3_wobSeed93_DR3_T11G_o1 (dsDNA)
DNA 1: GCAGTCAAAGGTCATCTAGGTAACGTAAGATATGCTGCGATTGACAGCGTAGAATGAAGG
DNA 2: CCTTCATTCTACGCTGTCAATCGCAGCATATCTTACGTTACCTAGATGACCTTTGACTGC
B6: NRC3_wobSeed69_DR2_T11G_o1 (dsDNA)
DNA 1: B3 DNA 1 with A6C, T11G
DNA 2: B3 DNA 2 with A50C, T55G
B7: NRC3_random_hg19_169_o1 (dsDNA)
DNA 1: GCCTTCCCTGCTGCTTTGTTTACCTAAGCAAGCCTGGCGATTGACAGCGTAGAATGAAGG
DNA 2: CCTTCATTCTACGCTGTCAATCGCCAGGCTTGCTTAGGTAAACAAAGCAGCAGGGAAGGC
B8: NRC3_wobSeed5_DR0_A14T_o1 (dsDNA)
DNA 1: GCCCTTACGGGTCTAGGTTATAGCACGGGTGGTACGGCGATTGACAGCGTAGAATGAAGG
DNA 2: CCTTCATTCTACGCTGTCAATCGCCGTACCACCCGTGCTATAACCTAGACCCGTAAGGGC
B9: NRC3_random_hg19_106_o1 (dsDNA)
DNA 1: GCAAGGAATGTAATCTAACTCTGTATTCAAAGAAGAGCGATTGACAGCGTAGAATGAAGG
DNA 2: CCTTCATTCTACGCTGTCAATCGCTCTTCTTTGAATACAGAGTTAGATTACATTCCTTGC
B10: NRC3_random_hg19_293_o1 (dsDNA)
DNA 1: GCGGAGAGGTCTTAGGATGCATTGGAGGCACAGTGTGCGATTGACAGCGTAGAATGAAGG
DNA 2: CCTTCATTCTACGCTGTCAATCGCACACTGTGCCTCCAATGCATCCTAAGACCTCTCCGC
B11: NRC3_random_hg19_499_o1 (dsDNA)
DNA 1: GCCATGTGGACTTCATTCGACCCAGCTGAGAAGACTGCGATTGACAGCGTAGAATGAAGG
DNA 2: CCTTCATTCTACGCTGTCAATCGCAGTCTTCTCAGCTGGGTCGAATGAAGTCCACATGGC
B12: NRC3_wobSeed49_DR2_A17G_o1 (dsDNA)
DNA 1: GCCAAACTAGGTCAAGGGGTCAAAGTCCGCTTCCCGGCGATTGACAGCGTAGAATGAAGG
DNA 2: CCTTCATTCTACGCTGTCAATCGCCGGGAAGCGGACTTTGACCCCTTGACCTAGTTTGGC
B13: NRC3_wobSeed37_DR1_C6A_o1 (dsDNA)
DNA 1: GCCGTACAAGGTCAAAGGTCAGTGAAGAGATGACGGGCGATTGACAGCGTAGAATGAAGG
DNA 2: CCTTCATTCTACGCTGTCAATCGCCCGTCATCTCTTCACTGACCTTTGACCTTGTACGGC
B14: NRC3_random_hg19_123_o1 (dsDNA)
DNA 1: GCGTGGAGAAAGTTCTGAGACTGAAGATGACTTTCCGCGATTGACAGCGTAGAATGAAGG
DNA 2: CCTTCATTCTACGCTGTCAATCGCGGAAAGTCATCTTCAGTCTCAGAACTTTCTCCACGC
B15: NRC3_wobSeed46_DR1_C6A_o1 (dsDNA)
DNA 1: GCTTAACAAGGTGAAAGGTCGTTGATGCACGCCTTGGCGATTGACAGCGTAGAATGAAGG
DNA 2: CCTTCATTCTACGCTGTCAATCGCCAAGGCGTGCATCAACGACCTTTCACCTTGTTAAGC
B16: NRC3_wobSeed66_DR2_A8G_o1 (dsDNA)
DNA 1: GCAATACGGGGTCACTAGGCCAGAGTAGGTACGAATGCGATTGACAGCGTAGAATGAAGG
DNA 2: CCTTCATTCTACGCTGTCAATCGCATTCGTACCTACTCTGGCCTAGTGACCCCGTATTGC
B17: NRC3_random_hg19_68_o1 (dsDNA)
DNA 1: GCAGCAGTGAGGACCAATGGGCAGTCCAGGAGGAAAGCGATTGACAGCGTAGAATGAAGG
DNA 2: CCTTCATTCTACGCTGTCAATCGCTTTCCTCCTGGACTGCCCATTGGTCCTCACTGCTGC
B18: NRC3_wobSeed47_DR1_G20C_o1 (dsDNA)
DNA 1: GCGGAACGAGGGCAAAGTTCATAGCATCTGTCGACGGCGATTGACAGCGTAGAATGAAGG
DNA 2: CCTTCATTCTACGCTGTCAATCGCCGTCGACAGATGCTATGAACTTTGCCCTCGTTCCGC
B19: NRC3_random_hg19_139_o1 (dsDNA)
DNA 1: GCAGGATCGCTTGAGTCCAGAGTTTGAGACCAGCCTGCGATTGACAGCGTAGAATGAAGG
DNA 2: CCTTCATTCTACGCTGTCAATCGCAGGCTGGTCTCAAACTCTGGACTCAAGCGATCCTGC
B20: NRC3_random_hg19_479_o1 (dsDNA)
DNA 1: GCAAGTAAACAGCCCTCTAGCTTGGGTGGAAATGTGGCGATTGACAGCGTAGAATGAAGG
DNA 2: CCTTCATTCTACGCTGTCAATCGCCACATTTCCACCCAAGCTAGAGGGCTGTTTACTTGC
B21: NRC3_wobSeed47_DR1_G12T_o1 (dsDNA)
DNA 1: B18 DNA 1 with G12T, C20G
DNA 2: B18 DNA 2 with G41C, C49A
B22: NRC3_wobSeed37_DR1_C6T_o1 (dsDNA)
DNA 1: B13 DNA 1 with A6T
DNA 2: B13 DNA 2 with T55A

Columns and labels:
[1] = target: PPARg:RXRa (Homo sapiens, UniProt P37231;P19793 full;full); experiment: no ligand; PBM; 180 nM : 90 nM RXRa; PBS pH 7.4, 2% milk, 0.02% Triton X-100, 1 mM DTT, BSA, 0.4 mg/ml salmon testes DNA; conditions: tags: His kept;His cleaved; copies: 1;1; label: surface-attached array probe
[2] = target: LXRb:RXRa (Homo sapiens, UniProt P55055;P19793 full;full); experiment: no ligand; PBM; 270 nM : 90 nM RXRa; PBS pH 7.4, 2% milk, 0.02% Triton X-100, 1 mM DTT, BSA, 0.4 mg/ml salmon testes DNA; conditions: tags: His kept;His cleaved; copies: 1;1; label: surface-attached array probe
Outline: (§1)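 The probes on custom Agilent 4×180K protein-binding microarrays were double-stranded, with 34-nt variable regions bearing direct-repeat seeds, single-nucleotide variants, half-site ablations and random human genomic background sequences. Incubation lasted 1 h with ligand-free nuclear receptor dimers in PBS pH 7.4, 2% milk, 0.02% Triton X-100, 1 mM DTT, 0.2 mg/mL BSA and 0.4 mg/ml salmon testes DNA. Antibodies against each partner (one per run) detected bound dimers, and fluorescence scans were regression-normalized. Binding z-scores take the random background probes as reference.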

[3] = target: VDR:RXRa (Homo sapiens, UniProt P11473;P19793 full;full); experiment: as above; conditions: tags: His kept;His cleaved; copies: 1;1; label: surface-attached array probe
Outline: as §1

[4] = target: RARb:RXRa (Homo sapiens, UniProt P10826;P19793 full;full); experiment: as above; conditions: tags: His kept;His cleaved; copies: 1;1; label: surface-attached array probe
Outline: as §1

[5] = target: LXRa:RXRa (Homo sapiens, UniProt Q13133;P19793 full;full); experiment: as above; conditions: tags: His kept;His cleaved; copies: 1;1; label: surface-attached array probe
Outline: as §1

[6] = target: FXR:RXRa (Homo sapiens, UniProt Q96RI1;P19793 full;full); experiment: as above; conditions: tags: His kept;His cleaved; copies: 1;1; label: surface-attached array probe
Outline: as §1

[7] = target: RXRa (Homo sapiens, UniProt P19793); experiment: no ligand; PBM; 180 nM; PBS pH 7.4, 2% milk, 0.02% Triton X-100, 1 mM DTT, BSA, 0.4 mg/ml salmon testes DNA; conditions: tags: His cleaved; chain copies: 2; label: surface-attached array probe
[8] = target: PPARa:RXRa (Homo sapiens, UniProt Q07869;P19793 full;full); experiment: no ligand; PBM; 270 nM : 90 nM RXRa; PBS pH 7.4, 2% milk, 0.02% Triton X-100, 1 mM DTT, BSA, 0.4 mg/ml salmon testes DNA; conditions: tags: GST kept;His cleaved; copies: 1;1; label: surface-attached array probe
Outline: as §1

[9] = target: RARg:RXRa (Homo sapiens, UniProt P13631;P19793 full;full); experiment: as above; conditions: tags: His kept;His cleaved; copies: 1;1; label: surface-attached array probe
Outline: as §1

FXR:RXRa, sequence (Q96RI1 whole entry, chain 1 of 2): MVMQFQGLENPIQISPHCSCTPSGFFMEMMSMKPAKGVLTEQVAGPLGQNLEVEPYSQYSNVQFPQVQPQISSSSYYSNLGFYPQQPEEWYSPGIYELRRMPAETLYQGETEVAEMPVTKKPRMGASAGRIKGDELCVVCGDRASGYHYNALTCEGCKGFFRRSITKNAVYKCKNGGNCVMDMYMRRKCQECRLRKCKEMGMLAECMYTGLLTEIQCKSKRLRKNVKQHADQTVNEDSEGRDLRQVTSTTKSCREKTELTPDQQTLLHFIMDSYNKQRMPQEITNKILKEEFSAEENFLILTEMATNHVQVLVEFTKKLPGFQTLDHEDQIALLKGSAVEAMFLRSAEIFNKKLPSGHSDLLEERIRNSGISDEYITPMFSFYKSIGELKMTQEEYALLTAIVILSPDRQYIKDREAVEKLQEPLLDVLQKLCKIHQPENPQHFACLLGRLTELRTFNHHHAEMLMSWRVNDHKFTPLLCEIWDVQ
FXR:RXRa, sequence (P19793 whole entry, chain 2 of 2): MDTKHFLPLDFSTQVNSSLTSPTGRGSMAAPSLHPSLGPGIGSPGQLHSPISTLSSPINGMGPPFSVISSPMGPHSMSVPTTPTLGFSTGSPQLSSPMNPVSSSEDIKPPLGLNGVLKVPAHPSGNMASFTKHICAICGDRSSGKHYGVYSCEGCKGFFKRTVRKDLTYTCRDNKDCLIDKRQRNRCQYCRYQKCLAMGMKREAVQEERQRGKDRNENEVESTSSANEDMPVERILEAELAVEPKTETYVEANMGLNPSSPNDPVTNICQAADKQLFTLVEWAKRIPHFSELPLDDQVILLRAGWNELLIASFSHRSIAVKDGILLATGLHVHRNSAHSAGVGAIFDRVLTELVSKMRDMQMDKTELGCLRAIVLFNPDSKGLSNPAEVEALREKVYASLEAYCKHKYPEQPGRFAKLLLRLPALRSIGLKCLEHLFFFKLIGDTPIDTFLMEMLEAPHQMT
RARb:RXRa, sequence (P10826 whole entry, chain 1 of 2): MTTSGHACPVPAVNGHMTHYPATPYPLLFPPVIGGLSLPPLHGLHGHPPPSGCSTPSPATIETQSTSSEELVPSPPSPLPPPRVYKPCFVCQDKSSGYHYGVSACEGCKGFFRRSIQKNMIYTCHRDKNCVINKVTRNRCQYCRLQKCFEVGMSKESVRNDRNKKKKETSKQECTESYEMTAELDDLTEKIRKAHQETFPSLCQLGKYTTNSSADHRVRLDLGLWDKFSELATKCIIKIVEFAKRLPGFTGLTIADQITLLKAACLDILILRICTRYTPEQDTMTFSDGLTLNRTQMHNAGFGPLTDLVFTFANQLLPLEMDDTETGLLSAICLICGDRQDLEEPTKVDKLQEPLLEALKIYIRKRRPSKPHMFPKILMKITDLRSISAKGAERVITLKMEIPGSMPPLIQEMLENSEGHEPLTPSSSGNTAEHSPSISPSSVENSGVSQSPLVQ
RARb:RXRa, sequence (P19793 whole entry, chain 2 of 2): as the sequence (P19793 whole entry, chain 2 of 2) above
RXRa, sequence (P19793 whole entry): as the sequence (P19793 whole entry, chain 2 of 2) above
VDR:RXRa, sequence (P11473 whole entry, chain 1 of 2): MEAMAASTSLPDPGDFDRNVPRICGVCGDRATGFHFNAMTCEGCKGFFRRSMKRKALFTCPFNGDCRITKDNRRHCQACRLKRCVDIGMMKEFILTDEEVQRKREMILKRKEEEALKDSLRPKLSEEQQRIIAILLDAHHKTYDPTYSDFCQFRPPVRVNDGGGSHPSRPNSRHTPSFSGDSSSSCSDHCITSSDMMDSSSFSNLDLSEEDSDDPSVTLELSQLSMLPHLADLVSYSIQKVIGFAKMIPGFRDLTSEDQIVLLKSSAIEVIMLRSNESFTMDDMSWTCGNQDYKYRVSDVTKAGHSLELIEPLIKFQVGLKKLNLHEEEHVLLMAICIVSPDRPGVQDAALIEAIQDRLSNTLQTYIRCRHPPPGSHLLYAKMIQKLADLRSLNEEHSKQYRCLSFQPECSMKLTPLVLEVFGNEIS
VDR:RXRa, sequence (P19793 whole entry, chain 2 of 2): as the sequence (P19793 whole entry, chain 2 of 2) above
LXRa:RXRa, sequence (Q13133 whole entry, chain 1 of 2): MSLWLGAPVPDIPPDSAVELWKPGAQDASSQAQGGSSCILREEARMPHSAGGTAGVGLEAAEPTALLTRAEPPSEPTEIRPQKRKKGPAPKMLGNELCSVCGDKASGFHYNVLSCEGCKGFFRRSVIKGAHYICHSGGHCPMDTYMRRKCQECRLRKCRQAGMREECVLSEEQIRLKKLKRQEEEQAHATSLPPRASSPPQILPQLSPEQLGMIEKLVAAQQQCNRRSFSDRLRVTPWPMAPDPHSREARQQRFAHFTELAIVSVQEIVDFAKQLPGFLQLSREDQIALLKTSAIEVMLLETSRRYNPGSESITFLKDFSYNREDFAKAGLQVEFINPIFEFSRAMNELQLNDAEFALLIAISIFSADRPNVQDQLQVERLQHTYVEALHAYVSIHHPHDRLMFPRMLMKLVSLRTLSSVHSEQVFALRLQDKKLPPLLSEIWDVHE
LXRa:RXRa, sequence (P19793 whole entry, chain 2 of 2): as the sequence (P19793 whole entry, chain 2 of 2) above
LXRb:RXRa, sequence (P55055 whole entry, chain 1 of 2): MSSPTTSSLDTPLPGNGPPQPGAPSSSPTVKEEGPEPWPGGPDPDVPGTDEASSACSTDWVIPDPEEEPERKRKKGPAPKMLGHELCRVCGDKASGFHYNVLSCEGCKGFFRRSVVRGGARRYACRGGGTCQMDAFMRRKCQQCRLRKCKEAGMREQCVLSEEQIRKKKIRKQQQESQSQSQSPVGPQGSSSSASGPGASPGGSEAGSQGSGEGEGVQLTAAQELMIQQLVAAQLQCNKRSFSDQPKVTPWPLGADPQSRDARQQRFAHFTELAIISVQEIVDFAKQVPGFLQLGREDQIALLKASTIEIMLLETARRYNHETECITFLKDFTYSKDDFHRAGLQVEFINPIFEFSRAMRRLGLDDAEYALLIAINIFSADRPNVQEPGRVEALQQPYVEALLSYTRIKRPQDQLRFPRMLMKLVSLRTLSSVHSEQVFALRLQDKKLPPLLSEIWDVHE
LXRb:RXRa, sequence (P19793 whole entry, chain 2 of 2): as the sequence (P19793 whole entry, chain 2 of 2) above
RARg:RXRa, sequence (P13631 whole entry, chain 1 of 2): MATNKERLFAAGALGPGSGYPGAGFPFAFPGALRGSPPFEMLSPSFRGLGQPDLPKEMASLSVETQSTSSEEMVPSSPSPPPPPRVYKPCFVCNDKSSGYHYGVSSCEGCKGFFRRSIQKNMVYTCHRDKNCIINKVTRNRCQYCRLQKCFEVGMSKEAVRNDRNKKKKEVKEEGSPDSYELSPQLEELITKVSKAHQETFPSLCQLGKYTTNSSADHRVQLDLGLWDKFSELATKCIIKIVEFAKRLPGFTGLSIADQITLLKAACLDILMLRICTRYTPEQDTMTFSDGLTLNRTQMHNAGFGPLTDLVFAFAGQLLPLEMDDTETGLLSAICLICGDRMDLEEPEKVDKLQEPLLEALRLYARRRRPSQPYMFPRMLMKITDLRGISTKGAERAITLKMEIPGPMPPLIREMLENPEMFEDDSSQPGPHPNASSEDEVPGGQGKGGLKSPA
RARg:RXRa, sequence (P19793 whole entry, chain 2 of 2): as the sequence (P19793 whole entry, chain 2 of 2) above
PPARg:RXRa, sequence (P37231 29-505, chain 1 of 2): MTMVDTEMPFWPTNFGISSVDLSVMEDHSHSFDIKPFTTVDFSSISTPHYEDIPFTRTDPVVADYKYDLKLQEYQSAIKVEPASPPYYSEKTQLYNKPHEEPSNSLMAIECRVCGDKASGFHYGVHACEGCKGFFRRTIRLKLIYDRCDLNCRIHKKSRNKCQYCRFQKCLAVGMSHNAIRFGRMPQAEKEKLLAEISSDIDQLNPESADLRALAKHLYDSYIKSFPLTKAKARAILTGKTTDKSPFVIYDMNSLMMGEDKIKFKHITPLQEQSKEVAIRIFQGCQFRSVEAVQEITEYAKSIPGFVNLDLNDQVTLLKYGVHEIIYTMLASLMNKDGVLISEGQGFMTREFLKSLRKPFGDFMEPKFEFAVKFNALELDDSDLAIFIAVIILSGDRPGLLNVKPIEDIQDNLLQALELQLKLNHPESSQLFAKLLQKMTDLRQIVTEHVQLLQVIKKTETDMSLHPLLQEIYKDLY
PPARg:RXRa, sequence (P19793 whole entry, chain 2 of 2): as the sequence (P19793 whole entry, chain 2 of 2) above
PPARa:RXRa, sequence (Q07869 whole entry, chain 1 of 2): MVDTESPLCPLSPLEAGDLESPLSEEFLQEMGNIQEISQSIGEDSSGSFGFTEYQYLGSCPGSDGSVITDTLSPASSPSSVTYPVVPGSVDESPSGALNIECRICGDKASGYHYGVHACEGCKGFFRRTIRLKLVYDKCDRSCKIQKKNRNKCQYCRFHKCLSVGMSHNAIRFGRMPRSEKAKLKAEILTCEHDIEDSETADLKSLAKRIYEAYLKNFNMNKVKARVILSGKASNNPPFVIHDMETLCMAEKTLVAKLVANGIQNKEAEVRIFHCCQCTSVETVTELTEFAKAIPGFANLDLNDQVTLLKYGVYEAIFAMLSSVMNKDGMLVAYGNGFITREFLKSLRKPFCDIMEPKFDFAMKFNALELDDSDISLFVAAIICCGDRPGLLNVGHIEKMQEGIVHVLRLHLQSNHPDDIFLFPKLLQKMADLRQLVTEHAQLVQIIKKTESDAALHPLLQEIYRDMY
PPARa:RXRa, sequence (P19793 whole entry, chain 2 of 2): as the sequence (P19793 whole entry, chain 2 of 2) above

Binder	binding signal [1]	binding signal [2]	binding signal [3]	binding signal [4]	binding signal [5]	binding signal [6]	binding signal [7]	binding signal [8]	binding signal [9]
B1	0.19 PBM z-score against 500 random probes	-0.42 PBM z-score against 500 random probes	-0.26 PBM z-score against 500 random probes	-0.3 PBM z-score against 500 random probes	-0.15 PBM z-score against 500 random probes	0 PBM z-score against 500 random probes	–	–	–
B2	-0.83 PBM z-score against 500 random probes	–	-0.78 PBM z-score against 500 random probes	–	–	-0.69 PBM z-score against 500 random probes	–	–	–
B3	5.13 PBM z-score against 500 random probes	–	3.55 PBM z-score against 500 random probes	–	–	–	–	–	–
B4	9.87 PBM z-score against 500 random probes	6.31 PBM z-score against 500 random probes	–	6.38 PBM z-score against 500 random probes	7.37 PBM z-score against 500 random probes	9.06 PBM z-score against 500 random probes	8.68 PBM z-score against 500 random probes	6.81 PBM z-score against 500 random probes	8.25 PBM z-score against 500 random probes
B5	10.1 PBM z-score against 500 random probes	6.47 PBM z-score against 500 random probes	–	6.16 PBM z-score against 500 random probes	7.01 PBM z-score against 500 random probes	8.84 PBM z-score against 500 random probes	8.08 PBM z-score against 500 random probes	7.57 PBM z-score against 500 random probes	7.62 PBM z-score against 500 random probes
B6	10.2 PBM z-score against 500 random probes	–	–	5.88 PBM z-score against 500 random probes	–	–	7.84 PBM z-score against 500 random probes	–	7.59 PBM z-score against 500 random probes
B7	-1.09 PBM z-score against 500 random probes	–	–	-0.32 PBM z-score against 500 random probes	-0.21 PBM z-score against 500 random probes	–	–	–	–
B8	0.3 PBM z-score against 500 random probes	–	–	–	–	–	0.15 PBM z-score against 500 random probes	–	0.05 PBM z-score against 500 random probes
B9	0.5 PBM z-score against 500 random probes	–	–	–	-0.1 PBM z-score against 500 random probes	–	–	–	–
B10	0.47 PBM z-score against 500 random probes	–	0.06 PBM z-score against 500 random probes	–	–	–	–	–	–
B11	0.35 PBM z-score against 500 random probes	0.14 PBM z-score against 500 random probes	–	–	0.09 PBM z-score against 500 random probes	–	–	–	–
B12	10.8 PBM z-score against 500 random probes	–	6.63 PBM z-score against 500 random probes	–	–	–	–	–	–
B13	12.3 PBM z-score against 500 random probes	–	–	–	7.38 PBM z-score against 500 random probes	8.85 PBM z-score against 500 random probes	–	–	–
B14	0.25 PBM z-score against 500 random probes	0.02 PBM z-score against 500 random probes	–	–	–	–	–	–	–
B15	10.4 PBM z-score against 500 random probes	–	3.31 PBM z-score against 500 random probes	–	–	–	–	–	–
B16	10.2 PBM z-score against 500 random probes	6.54 PBM z-score against 500 random probes	–	–	–	7.97 PBM z-score against 500 random probes	8.8 PBM z-score against 500 random probes	7.26 PBM z-score against 500 random probes	–
B17	-0.26 PBM z-score against 500 random probes	–	–	–	-0.72 PBM z-score against 500 random probes	–	–	–	–
B18	10.2 PBM z-score against 500 random probes	3.56 PBM z-score against 500 random probes	–	–	–	–	–	–	–
B19	-0.51 PBM z-score against 500 random probes	–	–	–	–	–	-0.68 PBM z-score against 500 random probes	-1.12 PBM z-score against 500 random probes	–
B20	-0.63 PBM z-score against 500 random probes	-0.48 PBM z-score against 500 random probes	–	–	–	–	–	–	–
B21	10.5 PBM z-score against 500 random probes	–	–	–	–	8.06 PBM z-score against 500 random probes	8.54 PBM z-score against 500 random probes	6.61 PBM z-score against 500 random probes	–
B22	11.8 PBM z-score against 500 random probes	–	–	–	7.33 PBM z-score against 500 random probes	8.83 PBM z-score against 500 random probes	–	–	–
